Reference: publication PMC7287156
Several values for one entry are separate records, joined by “and”; a condition that tells them apart may be missing. Identical values can stand only once.

Key:
[1] = target: Catechol 1,2-dioxygenase from Pseudomonas stutzeri GOM2 (Pseudomonas stutzeri GOM2); assay: SEC + other: dynamic light scattering; 50 mM glycine-NaOH pH 8.5 with 700 mM NaCl (seawater salinity); SEC on Superdex 200; DLS at 1 mg/mL, 40 °C
[2] = target: Catechol 1,2-dioxygenase from Pseudomonas stutzeri GOM2 (Pseudomonas stutzeri GOM2); assay: native gel or EMSA; 10% acrylamide gel under non-denaturing conditions, no SDS or reducing agents; the dimer and trimer samples from SEC mixed and loaded together
[3] = target: Catechol 1,2-dioxygenase from Pseudomonas stutzeri GOM2 (Pseudomonas stutzeri GOM2); assay: SEC; HiLoad 26/60 Superdex 200, 50 mM glycine-NaOH pH 8.5, no NaCl; 500 uL of protein at 20 mg/mL; mass from calibration with standard proteins

stoichiometry N [1]: 2
stoichiometry N [2]: 2 and 3
stoichiometry N [3]: 3
Substance: Catechol 1,2-dioxygenase from Pseudomonas stutzeri GOM2 (enzyme)
